Results from US20090304717A1.

Legend:
[1] = molecular target: PSMA (prostate-specific membrane antigen) (UniProt Q04609); test: flow; settings: LNCaP cells, on ice, sigmoidal fit
[2] = molecular target: PSMA (prostate-specific membrane antigen) (UniProt Q04609); test: cell_activity; settings: cytotoxicity on LNCaP, no effect on PSMA-negative MCF-7
[3] = 2'-F pyrimidines (library chemistry)

Sequence of UniProt Q04609 (Q04609 whole entry): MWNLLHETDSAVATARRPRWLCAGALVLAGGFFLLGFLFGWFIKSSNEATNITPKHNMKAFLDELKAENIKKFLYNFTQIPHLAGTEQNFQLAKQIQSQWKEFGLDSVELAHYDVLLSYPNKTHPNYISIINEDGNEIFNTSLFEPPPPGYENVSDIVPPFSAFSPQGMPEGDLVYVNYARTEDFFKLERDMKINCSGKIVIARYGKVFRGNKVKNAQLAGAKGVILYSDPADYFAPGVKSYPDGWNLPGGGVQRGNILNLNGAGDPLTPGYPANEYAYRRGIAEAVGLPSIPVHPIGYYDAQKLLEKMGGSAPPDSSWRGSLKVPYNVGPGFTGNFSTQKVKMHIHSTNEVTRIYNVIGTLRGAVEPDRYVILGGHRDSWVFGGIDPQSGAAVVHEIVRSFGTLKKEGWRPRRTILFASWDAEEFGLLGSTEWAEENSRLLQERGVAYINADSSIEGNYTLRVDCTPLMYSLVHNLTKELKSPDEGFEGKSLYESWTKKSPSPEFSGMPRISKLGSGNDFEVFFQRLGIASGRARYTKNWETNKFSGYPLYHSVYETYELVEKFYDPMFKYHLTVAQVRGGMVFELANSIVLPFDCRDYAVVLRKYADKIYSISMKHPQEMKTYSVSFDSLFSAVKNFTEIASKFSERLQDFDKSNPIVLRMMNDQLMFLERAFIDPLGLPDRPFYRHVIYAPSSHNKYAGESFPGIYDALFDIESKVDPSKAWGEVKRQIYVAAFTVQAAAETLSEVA

## GGGAGGACGAUGCGGAUCAGCCAUGUUUACGUCACUCCUUGUCAAUCCUCAUCGGCUAAAAAUUGCGCCAUCAUGGACAAGAAUU / GGGAGGACGAUGCGGAUCAGCCAUGUUUACGUCACUCCUUGUCAAUCCUCAUCGGCAAAAAUUCUUGUCCAUGAUGGCGCGG [PSMA biv anneal siEEF2 (1+2 annealed)]
[1]; transcribed with Durascribe T7 kit (kit implies 2'-F pyrimidines)
  Kd: 46.5 nM

## GGGAGGACGAUGCGGAUCAGCCAUGUUUACGUCACUCCUUGUCAAUCCUCAUCGGCAGCGCCAUCAUGGACAAGAAUUGAAGCUUCUUCUUGUCCAUGAUGGCGCGG [xPSM-A-3-siEEF2]
[2]; [3]
  EC50: 1510 nM
[1]; [3]
  Kd: 26.7 nM

## GGGAGGACGAUGCGGAUCAGCCAUGUUUACGUCACUCCUUGUCAAUCCUCAUCGGCUAAAAAUUGCGCCAUCAUGGACAAGAAUUAAUUAAGGGAGGACGAUGCGGAUCAGCCAUGUUUACGUCACUCCUUGUCAAUCCUCAUCGGCAAAAAUUCUUGUCCAUGAUGGCGCGGGAGCUCGAAUU [PSMB1-siEEF2]
[2]; transcribed with Durascribe T7 kit (kit implies 2'-F pyrimidines), +/-0.1246
  EC50: 517 nM

## GGGAGGACGAUGCGGAUCAGCCAUGUUUACGUCACUCCUUGUCAAUCCUCAUCGGCUAAAAUUAGGCCUAUCUGCCCGUCAAUUAAAAAUUGGGAGGACGAUGCGGAUCAGCCAUGUUUACGUCACUCCUUGUCAAUCCUCAUCGGCAGCGCCAUCAUGGACAAGAAUUGAAGCUUCUUCUUGUCCAUGAUGGCGCGGAAAAAAAUUGACGGGCAGAUAGGCCUUUGAGCUCGAAUU [PSMB2-siEEF2]
[2]; transcribed with Durascribe T7 kit (kit implies 2'-F pyrimidines), +/-0.01282
  EC50: 212 nM
